Reference: patent US20040253247A1

T1: rat albumin (rat), P02770
T1 chain: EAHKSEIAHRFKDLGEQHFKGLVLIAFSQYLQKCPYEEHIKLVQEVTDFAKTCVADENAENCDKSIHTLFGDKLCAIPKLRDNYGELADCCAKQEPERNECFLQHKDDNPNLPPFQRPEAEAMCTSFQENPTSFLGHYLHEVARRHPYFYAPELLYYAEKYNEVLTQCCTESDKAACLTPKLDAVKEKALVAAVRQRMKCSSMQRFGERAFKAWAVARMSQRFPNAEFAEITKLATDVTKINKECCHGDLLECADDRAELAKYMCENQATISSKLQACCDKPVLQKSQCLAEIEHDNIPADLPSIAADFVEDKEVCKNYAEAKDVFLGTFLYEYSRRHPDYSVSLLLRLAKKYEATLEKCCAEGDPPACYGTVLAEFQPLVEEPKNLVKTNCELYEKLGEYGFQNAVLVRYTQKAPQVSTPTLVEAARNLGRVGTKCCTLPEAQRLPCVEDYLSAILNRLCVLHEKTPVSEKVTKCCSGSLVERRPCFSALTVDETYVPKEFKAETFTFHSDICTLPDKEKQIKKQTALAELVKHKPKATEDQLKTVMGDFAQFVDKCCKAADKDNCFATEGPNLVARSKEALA

T2: rabbit albumin (rabbit), P49065
T2 chain: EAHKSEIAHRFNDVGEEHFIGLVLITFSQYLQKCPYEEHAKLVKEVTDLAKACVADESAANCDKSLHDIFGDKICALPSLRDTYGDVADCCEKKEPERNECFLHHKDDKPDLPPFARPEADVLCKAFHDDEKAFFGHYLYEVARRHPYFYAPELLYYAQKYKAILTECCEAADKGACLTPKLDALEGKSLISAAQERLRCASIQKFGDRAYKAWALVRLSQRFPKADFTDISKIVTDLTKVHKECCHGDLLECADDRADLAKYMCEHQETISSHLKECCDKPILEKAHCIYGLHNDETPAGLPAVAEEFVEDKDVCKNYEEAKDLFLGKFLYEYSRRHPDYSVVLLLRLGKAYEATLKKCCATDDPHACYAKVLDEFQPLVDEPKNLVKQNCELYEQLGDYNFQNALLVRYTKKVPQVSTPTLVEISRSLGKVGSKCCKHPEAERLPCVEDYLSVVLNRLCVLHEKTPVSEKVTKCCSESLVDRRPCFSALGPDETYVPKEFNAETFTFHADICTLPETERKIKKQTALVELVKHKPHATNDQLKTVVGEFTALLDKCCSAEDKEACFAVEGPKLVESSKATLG


Assays:
Assay in all cases: SA08b binding assay: competition with biotinylated SA08b for immobilized albumin
[1] = target: mouse albumin (mouse), P07724
[2] = target: T1, rat albumin (rat), P02770
[3] = target: T2, rabbit albumin (rabbit), P49065

Chain of mouse albumin (mouse), P07724 (P07724 25-608 limits assumed): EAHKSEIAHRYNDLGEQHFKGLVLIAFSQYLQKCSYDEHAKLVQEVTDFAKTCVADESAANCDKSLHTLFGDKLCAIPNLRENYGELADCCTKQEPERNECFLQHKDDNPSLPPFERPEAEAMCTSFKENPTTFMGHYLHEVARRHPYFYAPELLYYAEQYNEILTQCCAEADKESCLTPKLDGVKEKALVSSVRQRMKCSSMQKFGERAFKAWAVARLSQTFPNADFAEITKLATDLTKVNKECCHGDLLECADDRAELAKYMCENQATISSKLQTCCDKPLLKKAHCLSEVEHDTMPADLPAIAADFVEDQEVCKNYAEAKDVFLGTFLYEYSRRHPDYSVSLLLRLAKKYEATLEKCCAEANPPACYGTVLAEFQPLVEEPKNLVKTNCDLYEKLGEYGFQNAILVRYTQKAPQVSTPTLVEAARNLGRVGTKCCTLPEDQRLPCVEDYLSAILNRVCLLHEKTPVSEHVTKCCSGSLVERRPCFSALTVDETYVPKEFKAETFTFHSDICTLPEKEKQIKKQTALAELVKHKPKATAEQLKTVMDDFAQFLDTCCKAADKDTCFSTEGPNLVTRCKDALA

Row | IC50 [1] [nM] | IC50 [2] [nM] | IC50 [3] [nM] | Binder
1 | 4 | 77 | 86 | RLMEDICLPRWGCLWEDD (modifications not checked) [SA10]
2 | 188 | 2480 | 3200 | RLMEDICLARWGCLWEDD (modifications not checked) [SA13]
